{"source": "paper PMC8427598", "about": "“Identification and Characterization of an Antennae-Specific Glutathione S-Transferase From the Indian Meal Moth” (Frontiers in Physiology, 2021)", "tested_on": "O=[N+]([O-])c1ccc(Cl)c([N+](=O)[O-])c1", "assay": "purified protein", "details": "50 mM GSH, acetate-phosphate buffer pH 7.5 (b1, b25; b45 prints optimum pH 7.0), 35 °C", "data": [{"substance": "PiGSTd1 (Plodia interpunctella)", "values": [{"measurement": "Km", "value": "229.2 ± 18.05", "unit": "µM"}]}]}
